Source: US11278600B2, “Human alpha-galactosidase variants” (Codexis, Inc., priority 2014, dated 2022)
Numbering of substitutions follows the chain as printed.

B1: 545 (protein)
chain: LDNGLARTPTMGWLHWERFMCNLDCQEEPDSCISEKLFMEMAERMVSEGWKDAGYEYLCIDDCWMAPQRDSEGRLQADPQRFPHGIRQLANHVHSKGLKLGIYADVGNKTCAGFPGSFGYYDIDAQTFADWGVDLLKFDGCYCDSLENLADGYKHMSLALNRTGRSIVYSCEWPLYMWPFQKPNYTEIRQYCNHWRNFADIDDSWASIKSILDWTSRNQERIVDVAGPGGWNDPDMLVIGNFGLSWDQQVTQMALWAIMAAPLFMSNDLRHISPQAKALLQDKDVIAINQDPLGAQGYQLRKGDNFEVWERPLSGDAWAVAIINRQEIGGPRSYTIPVASLGKGVACNPACFITQLLPVKRQLGFYNWTSRLKSHINPTGTVLLQLENTMQMSLKDLL
modifications: Synthetic Polypeptide sequence of Variant No. 545 of mature Human GLA
B2: 546 (protein)
chain: B1 chain with A295E
modifications: Synthetic Polypeptide sequence of Variant No. 546 of mature Human GLA
B3: 613 (protein)
chain: B1 chain with S47N, S166P, H271A, A295K, M390Q
modifications: Synthetic Polypeptide sequence of Variant No. 613 of mature Human GLA
B4: 616 (protein)
chain: B1 chain with S47T, S166P, M259W, H271A, A295K, M390Q
modifications: Synthetic Polypeptide sequence of Variant No. 616 of mature Human GLA
B5: 614 (protein)
chain: B1 chain with S47T, S166P, A295K
modifications: Synthetic Polypeptide sequence of Variant No. 614 of mature Human GLA
B6: 617 (protein)
chain: B1 chain with L136V, S166P, M259A, A295K, M390Q
modifications: Synthetic Polypeptide sequence of Variant No. 617 of mature Human GLA
B7: 618 (protein)
chain: B1 chain with S47T, S166P, H271A, A295K
modifications: Synthetic Polypeptide sequence of Variant No. 618 of mature Human GLA
B8: 610 (protein)
chain: B1 chain with S47T, S166P, M259E, A295K, M390Q
modifications: Synthetic Polypeptide sequence of Variant No. 610 of mature Human GLA
B9: 634 (protein)
chain: B1 chain with E43D, H92E, S166P, A295K
modifications: Synthetic Polypeptide sequence of Variant No. 634 of mature Human GLA
B10: 633 (protein)
chain: B1 chain with E43D, H92S, S166P, A295K
modifications: Synthetic Polypeptide sequence of Variant No. 633 of mature Human GLA
B11: 615 (protein)
chain: B1 chain with S47N, S166P, A295K, M390H
modifications: Synthetic Polypeptide sequence of Variant No. 615 of mature Human GLA
B12: 611 (protein)
chain: B1 chain with S166P, A295K, M390Q
modifications: Synthetic Polypeptide sequence of Variant No. 611 of mature Human GLA

Test: HTP-analysis of supernatants pretreated with acid (MUGal hydrolysis)
Type: biochemical
Conditions: activity of the variant/activity of Rd3BB (SEQ ID NO: 13); challenge at pH 3.7
How it was run: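 MUGal hydrolysis was tracked by fluorescence (Ex 355 nm, Em 448 nm) after a 30-180 min reaction at 37° C. in pH 4.8 McIlvaine/citrate buffer, stopped with 1 M sodium carbonate. Beforehand, yeast (INVSc1) culture supernatants carrying GLA variants were held 1-3 h at 37° C. in acidic McIlvaine buffer, pH 3.3-4.3.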

Row | Molecule | Relative Activity of GLA Variants After Challenge at pH 3.7
1 | B1 | + (+ = 1.5 to 5 relative activity over Rd3BB (SEQ ID NO: 13))
2 | B2 | +++ (+++ = >10 relative activity over Rd3BB (SEQ ID NO: 13))

Same assay, conditions: challenge at pH 3.3; activity of the variant/activity of Rd3BB (SEQ ID NO: 13); yeast supernatant

Row | Molecule | Relative Activity of GLA Variants After Challenge at pH 3.3
3 | B3 | ++ (++ = >5 to 10 relative activity over Rd3BB (SEQ ID NO: 13))
4 | B4 | + (+ = 1.5 to 5 relative activity over Rd3BB (SEQ ID NO: 13))
5 | B5 | ++ (++ = >5 to 10 relative activity over Rd3BB (SEQ ID NO: 13))
6 | B6 | ++ (++ = >5 to 10 relative activity over Rd3BB (SEQ ID NO: 13))
7 | B7 | ++ (++ = >5 to 10 relative activity over Rd3BB (SEQ ID NO: 13))
8 | B8 | + (+ = 1.5 to 5 relative activity over Rd3BB (SEQ ID NO: 13))
9 | B9 | ++ (++ = >5 to 10 relative activity over Rd3BB (SEQ ID NO: 13))
10 | B10 | ++ (++ = >5 to 10 relative activity over Rd3BB (SEQ ID NO: 13))
11 | B11 | ++ (++ = >5 to 10 relative activity over Rd3BB (SEQ ID NO: 13))
12 | B12 | +++ (+++ = >10 relative activity over Rd3BB (SEQ ID NO: 13))

Test: HTP-analysis of yeast culture supernatants, no challenge (MUGal hydrolysis)
Type: biochemical
Conditions: activity of the variant/activity of Rd3BB (SEQ ID NO: 13)
How it was run: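 GLA variants expressed in yeast INVSc1, secreted into SD-Ura broth over 66-84 h at 30° C; clarified supernatants tested without challenge. Supernatant mixed with McIlvaine buffer pH 4.8 and 2 mM MUGal (citrate/KCl, pH 4.6), 37° C for 30-180 min, carbonate-quenched, fluorescence Ex 355/Em 448 nm.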

Row | Molecule | Relative Activity of GLA Variants After No Challenge (NC)
13 | B1 | + (+ = 1.5 to 5 relative activity over Rd3BB (SEQ ID NO: 13))
14 | B2 | + (+ = 1.5 to 5 relative activity over Rd3BB (SEQ ID NO: 13))

Same assay, conditions: activity of the variant/activity of Rd3BB (SEQ ID NO: 13), yeast supernatant

Row | Molecule | Relative Activity of GLA Variants After No Challenge (NC)
15 | B3 | + (+ = 1.5 to 5 relative activity over Rd3BB (SEQ ID NO: 13))
16 | B4 | + (+ = 1.5 to 5 relative activity over Rd3BB (SEQ ID NO: 13))
17 | B5 | + (+ = 1.5 to 5 relative activity over Rd3BB (SEQ ID NO: 13))
18 | B6 | + (+ = 1.5 to 5 relative activity over Rd3BB (SEQ ID NO: 13))
19 | B7 | + (+ = 1.5 to 5 relative activity over Rd3BB (SEQ ID NO: 13))
20 | B8 | + (+ = 1.5 to 5 relative activity over Rd3BB (SEQ ID NO: 13))
21 | B9 | + (+ = 1.5 to 5 relative activity over Rd3BB (SEQ ID NO: 13))
22 | B10 | + (+ = 1.5 to 5 relative activity over Rd3BB (SEQ ID NO: 13))
23 | B11 | + (+ = 1.5 to 5 relative activity over Rd3BB (SEQ ID NO: 13))
24 | B12 | + (+ = 1.5 to 5 relative activity over Rd3BB (SEQ ID NO: 13))

Test: HTP-analysis of supernatants pretreated with base (MUGal hydrolysis)
Type: biochemical
Conditions: activity of the variant/activity of Rd3BB (SEQ ID NO: 13); challenge at pH 9.7
How it was run: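 GLA variants secreted from yeast INVSc1; culture supernatants pre-incubated with McIlvaine buffer pH 7.0–8.2 or 200 mM bicarbonate pH 9.1–9.7 at 37° C. for 1–18 h. Residual activity: MUGal (4 mM stock) hydrolysis at pH 4.3–4.8, 37° C., 30–180 min, carbonate quench; fluorescence Ex 355/Em 448 nm.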

Row | Molecule | Relative Activity of GLA Variants After Challenge at pH 9.7
25 | B1 | ++ (++ = >5 to 10 relative activity over Rd3BB (SEQ ID NO: 13))
26 | B2 | ++ (++ = >5 to 10 relative activity over Rd3BB (SEQ ID NO: 13))

Same assay, conditions: challenge at pH 9.7; activity of the variant/activity of Rd3BB (SEQ ID NO: 13); yeast supernatant

Row | Molecule | Relative Activity of GLA Variants After Challenge at pH 9.7
27 | B3 | ++ (++ = >5 to 10 relative activity over Rd3BB (SEQ ID NO: 13))
28 | B4 | ++ (++ = >5 to 10 relative activity over Rd3BB (SEQ ID NO: 13))
29 | B5 | ++ (++ = >5 to 10 relative activity over Rd3BB (SEQ ID NO: 13))
30 | B6 | ++ (++ = >5 to 10 relative activity over Rd3BB (SEQ ID NO: 13))
31 | B7 | ++ (++ = >5 to 10 relative activity over Rd3BB (SEQ ID NO: 13))
32 | B8 | − (− = <1.5 relative activity to Rd3BB (SEQ ID NO: 13))
33 | B9 | ++ (++ = >5 to 10 relative activity over Rd3BB (SEQ ID NO: 13))
34 | B10 | ++ (++ = >5 to 10 relative activity over Rd3BB (SEQ ID NO: 13))
35 | B11 | ++ (++ = >5 to 10 relative activity over Rd3BB (SEQ ID NO: 13))
36 | B12 | ++ (++ = >5 to 10 relative activity over Rd3BB (SEQ ID NO: 13))
